Legend:
[1] = target: T1, recombinant WASP, full-length (1-502 a.a.) with a GST tag at the N-terminus (human, UniProt P42768 1-502); assay: MST; Monolith NT.115; SRSF2 labelled with RED-tris-NTA at 1 nM, WASP titrated 90 pM to 3 µM; 50 mM HEPES pH 7.5, 10 mM MgCl2, 100 mM KCl, 0.1 mg/ml BSA, 5% glycerol, 1 mM DTT; settings: both partners purified
T1 construct: Wiskott-Aldrich syndrome protein (WASP), human, full-length protein, 1-502 a.a; source: bought: Abnova (in vitro wheat germ expression system, purified by Glutathione Sepharose 4 Fast Flow); not shown: GST, N-terminal, kept
T1 sequence (looked up): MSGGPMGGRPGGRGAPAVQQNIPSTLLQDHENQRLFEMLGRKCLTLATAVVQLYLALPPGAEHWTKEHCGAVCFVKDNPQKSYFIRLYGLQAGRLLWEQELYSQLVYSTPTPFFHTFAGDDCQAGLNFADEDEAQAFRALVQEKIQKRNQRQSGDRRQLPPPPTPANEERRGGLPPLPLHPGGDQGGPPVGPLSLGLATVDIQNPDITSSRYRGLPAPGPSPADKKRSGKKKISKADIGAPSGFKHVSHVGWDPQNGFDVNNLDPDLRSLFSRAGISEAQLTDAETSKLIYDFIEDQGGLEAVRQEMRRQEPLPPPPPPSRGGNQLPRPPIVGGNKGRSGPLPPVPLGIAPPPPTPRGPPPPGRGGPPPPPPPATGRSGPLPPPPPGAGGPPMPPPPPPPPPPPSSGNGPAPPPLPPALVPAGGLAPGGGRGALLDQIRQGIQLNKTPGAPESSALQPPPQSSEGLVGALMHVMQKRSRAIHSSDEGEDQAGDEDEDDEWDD

[2] = target: T2, recombinant human full-length SRSF2, N-terminally 8X histidine- and SUMO-tagged and C-terminus Strep-tagged (human, UniProt Q01130 1-221, RED-tris-NTA dye on the His tag); assay: MST
T2 chain: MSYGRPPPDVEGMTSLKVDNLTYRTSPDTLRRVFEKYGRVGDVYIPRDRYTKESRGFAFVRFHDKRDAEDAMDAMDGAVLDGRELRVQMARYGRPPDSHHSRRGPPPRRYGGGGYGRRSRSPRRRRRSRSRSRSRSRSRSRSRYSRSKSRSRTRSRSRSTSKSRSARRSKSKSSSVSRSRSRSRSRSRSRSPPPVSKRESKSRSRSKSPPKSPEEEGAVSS

B1: recombinant human full-length SRSF2, N-terminally 8X histidine- and SUMO-tagged and C-terminus Strep-tagged (natural protein, UniProt Q01130 1-221, looked up)
chain: T2 chain
modifications: RED-tris-NTA dye on the His tag
notes: No tag cleavage step is described in the purification, so SUMO and Strep were probably still on the protein; The MST methods call it His6-tagged, the expression methods 8X histidine; also called His6-tagged SRSF2; recombinant SRSF2; source: E. coli BL21 (DE3), purified (HisTrap HP, dialysis); not shown: His8, N-terminal, kept
B1: binds [1].

B2: recombinant WASP, full-length (1-502 a.a.) with a GST tag at the N-terminus (natural protein)
chain: T1 sequence (looked up)
B2 showed a Kd [2] of 211 nM.
